# Values joined by “and” are separate entries in the source; they are usually repeats but may differ in a detail not shown here. Identical values can stand only once.
# Target: Bac-F
# Test: BIAcore, mAb vs Bac-F (1:1)
Binder,Kd [nM],koff [s⁻¹],kon [M⁻¹ s⁻¹],number in parentheses after KD (fold against SYNAGIS = 1) [fold]
"A12a6 (monoclonal antibody) (antibody, V domains shown) VH: QVTLRESGPALVKPTQTLTLTCTFSGFSLSTAGMSVGWIRQPPGKALEWLADIWWDGKKDYNPSLKDRLTISKDTSKNQVVLKVTNMDPADTATYYCARDMIFNFYFDVWGQGTTVTVSS VL: DIQMTQSPSTLSASVGDRVTITCSASSRVGYMHWYQQKPGKAPKLLIYDTFKLSSGVPSRFSGSGSGTEFTLTISSLQPDDFATYYCFQGSGYPFTFGGGTKVEIK",0.04,1.65e-05,460000,98
"P11d4 (monoclonal antibody) (antibody, V domains shown) VH: QVTLRESGPALVKPTQTLTLTCTFSGFSLSTPGMSVGWIRQPPGKALEWLADIWWDGKKHYNPSLKDRLTISKDTSKNQVVLKVTNMDPADTATYYCARDMIFNWYFDVWGQGTTVTVSS VL: DIQMTQSPSTLSASVGDRVTITCSPSSRVGYMHWYQQKPGKAPKLLIYDTMRLASGVPSRFSGSGSGTEFTLTISSLQPDDFATYYCFQGSGYPFTFGGGTKVEIK",0.62,0.000289,466000,6
"P12f2 (monoclonal antibody) (antibody, V domains shown) VH: QVTLRESGPALVKPTQTLTLTCTFSGFSLSTPGMSVGWIRQPPGKALEWLADIWWDDKKHYNPSLKDRLTISKDTSKNQVVLKVTNMDPADTATYYCARDMIFNFYFDVWGAGTTVTVSS VL: DIQMTQSPSTLSASVGDRVTITCSLSSRVGYMHWYQQKPGKAPKLLIYDTFYLSSGVPSRFSGSGSGTEFTLTISSLQPDDFATYYCFQGSGYPFTFGGGTKVEIK",0.31,0.000128,407000,13
"A17d4 (monoclonal antibody) (antibody, V domains shown) VH: QVTLRESGPALVKPTQTLTLTCTFSGFSLSTAGMSVGWIRQPPGKALEWLADIWWDGKKSYNPSLKDRLTISKDTSKNQVVLKVTNMDPADTATYYCARDMIFNFYFDVWGQGTTVTVSS VL: DIQMTQSPSTLSASVGDRVTITCLPSSRVGYMHWYQQKPGKAPKLLIYDTMYQASGVPSRFSGSGSGTEFTLTISSLQPDDFATYYCFQFSGYPFTFGGGTKLEIK",0.09,4.07e-05,456000,43
"A8c7 (monoclonal antibody) (antibody, V domains shown) VH: QVTLRESGPALVKPTQTLTLTCTFSGFSLSTAGMSVGWIRQPPGKALEWLADIWWDDKKSYNPSLKDRLTISKDTSKNQVVLKVTNMDPADTATYYCARDMIFNWYFDVWGQGTTVTVSS VL: DIQMTQSPSTLSASVGDRVTITCSASSRVGYMHWYQQKPGKAPKLLIYDTRYQSSGVPSRFSGSGSGTEFTLTISSLQPDDFATYYCFQGSGYPFTFGGGTKLEIK",0.21,8.75e-05,417000,19
"A1e9 (monoclonal antibody) (antibody, V domains shown) VH: QVTLRESGPALVKPTQTLTLTCTFSGFSLSTPGMSVGWIRQPPGKALEWLADIWWDGKKHYNPSLKDRLTISKDTSKNQVVLKVTNMDPADTATYYCARDMIFNWYFDVWGQGTTVTVSS VL: DIQMTQSPSTLSASVGDRVTITCSLSSRVGYMHWYQQKPGKAPKLLIYDTFKLSSGVPSRFSGSGSGTEFTLTISSLQPDDFATYYCFQGSGYPFTFGGGTKVEIK",0.33,0.000143,433000,12
"A13c4 (monoclonal antibody) (antibody, V domains shown) VH: QVTLRESGPALVKPTQTLTLTCTFSGFSLSTAGMSVGWIRQPPGKALEWLADIWWDGKKSYNPSLKDRLTISKDTSKNQVVLKVTNMDPADTATYYCARDMIFNFYFDVWGQGTTVTVSS VL: DIQMTQSPSTLSASVGDRVTITCSLSSRVGYMHWYQQKPGKAPKLLIYDTMYQSSGVPSRFSGSGSGTEFTLTISSLQPDDFATYYCFQGSGYPFTFGGGTKVEIK",0.13,3.96e-05,300000,30
"P12f4 (monoclonal antibody) (antibody, V domains shown) VH: QVTLRESGPALVKPTQTLTLTCTFSGFSLSTPGMSVGWIRQPPGKALEWLADIWWDGKKHYNPSLKDRLTISKDTSKNQVVLKVTNMDPADTATYYCARDMIFNFYFDVWGQGTTVTVSS VL: DIQMTQSPSTLSASVGDRVTITCSLSSRVGYMHWYQQKPGKAPKLLIYDTRGLPSGVPSRFSGSGSGTEFTLTISSLQPDDFATYYCFQGSGYPFTFGGGTKVEIK",0.11,5.55e-05,495000,35

# Target: RSV F protein (immobilized on the BIAcore sensor chip) (respiratory syncytial virus)
# Test: BIAcore, immobilized F protein
# Chain of RSV F protein (immobilized on the BIAcore sensor chip) (respiratory syncytial virus) (P03420 26-524): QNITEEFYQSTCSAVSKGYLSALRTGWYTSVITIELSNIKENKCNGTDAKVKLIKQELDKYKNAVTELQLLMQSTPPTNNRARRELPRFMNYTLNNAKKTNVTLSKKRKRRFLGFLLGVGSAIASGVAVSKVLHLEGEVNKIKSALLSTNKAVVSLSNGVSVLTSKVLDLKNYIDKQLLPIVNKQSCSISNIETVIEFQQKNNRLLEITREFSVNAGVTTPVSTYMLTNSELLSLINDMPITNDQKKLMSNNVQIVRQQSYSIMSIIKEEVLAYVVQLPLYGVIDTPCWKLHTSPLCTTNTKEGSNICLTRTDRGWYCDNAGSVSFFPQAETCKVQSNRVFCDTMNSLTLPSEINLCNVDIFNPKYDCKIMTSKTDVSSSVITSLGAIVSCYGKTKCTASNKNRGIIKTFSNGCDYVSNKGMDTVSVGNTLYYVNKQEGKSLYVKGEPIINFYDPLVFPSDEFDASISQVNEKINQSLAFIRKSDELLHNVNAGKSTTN
Binder,koff,kon
"AFFF (monoclonal antibody) (antibody, V domains shown) VH: QVTLRESGPALVKPTQTLTLTCTFSGFSLSTAGMSVGWIRQPPGKALEWLADIWWDDKKDYNPSLKSRLTISKDTSKNQVVLKVTNMDPADTATYYCARSMITNFYFDVWGAGTTVTVSS VL: DIQMTQSPSTLSASVGDRVTITCSASSSVGYMHWYQQKPGKAPKLLIYDTFKLASGVPSRFSGSGSGTEFTLTISSLQPDDFATYYCFQFSGYPFTFGGGTKLEIK",0.000274 s⁻¹ and 0.000266 s⁻¹ and 0.000206 s⁻¹,108000 M⁻¹ s⁻¹ and 96000 M⁻¹ s⁻¹ and 124000 M⁻¹ s⁻¹
"L1-7E5 (Fab fragment) (Fab, V domains shown) VH: QVTLRESGPALVKPTQTLTLTCTFSGFSLSTAGMSVGWIRQPPGKALEWLADIWWDDKKDYNPSLKSRLTISKDTSKNQVVLKVTNMDPADTATYYCARDMITNFYFDVWGAGTTVTVSS VL: DIQMTQSPSTLSASVGDRVTITCSASSSVGYMHWYQQKPGKAPKLLIYDTFRLASGVPSRFSGSGSGTEFTLTISSLQPDDFATYYCFQGSGYPFTFGGGTKLEIK",0.000192 s⁻¹ and 0.000331 s⁻¹ and 0.000229 s⁻¹,
"AFFF (Fab fragment) (Fab, V domains shown) VH: QVTLRESGPALVKPTQTLTLTCTFSGFSLSTAGMSVGWIRQPPGKALEWLADIWWDDKKDYNPSLKSRLTISKDTSKNQVVLKVTNMDPADTATYYCARSMITNFYFDVWGAGTTVTVSS VL: DIQMTQSPSTLSASVGDRVTITCSASSSVGYMHWYQQKPGKAPKLLIYDTFKLASGVPSRFSGSGSGTEFTLTISSLQPDDFATYYCFQFSGYPFTFGGGTKLEIK",0.000245 s⁻¹ and 0.000446 s⁻¹ and 0.000268 s⁻¹,212000 M⁻¹ s⁻¹ and 156000 M⁻¹ s⁻¹ and 186000 M⁻¹ s⁻¹

# From patent US20030091584A1
